Target: KDR (VEGF receptor, flk-1/KDR, VEGFR2) (human) (UniProt P35968)
Experiment: in vitro receptor saturation; format not stated

IMC-1C11 (antibody)
concentration at 50% saturation of VEGF receptors: 0.2 µg/mL
concentration at 100% saturation of VEGF receptors: 3 µg/mL
